The values that follow come from the supplement of paper PMC9170038.

The data set relates to MS2 coat protein. As to the kind of experiment: apparent KD of MS2 coat protein; designed switch direction (-1 OFF switch, 1 ON switch): -1; higher = weaker reporter binding. The essentials: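 An oligonucleotide input, 200 uM small-molecule ligand, or no input was present during titration of SNAP-549-labelled MS2 coat protein, which was doubled from 0.7 or 1.5 nM to 3 µM. Designed RNA switches had been transcribed on Illumina chips by stalled E. coli RNA polymerase. Apparent KD per design is the median over clusters of curves fitted to normalised cluster fluorescence.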

[1] abbreviates: Eterna round: R95, input ligand: FMN 200 uM.
The mark [2] stands for this setting: Eterna round: R95, input ligand: microRNA oligo, concentration not stated.
The mark [3] stands for this setting: Eterna round: R95, input ligand: none.
Setting [4] is: input ligand: microRNA oligo, concentration not stated.

As to “AAGAAACAUGAGGAUCACCCAUGUGAGGAUAUGAAAAAGAAAAGAAAAGAAAGAAGGGUCAGAAGGCACAAAGG [salish99-ex1_r3_028] (puzzle: Exclusion 1)”, the “apparent KD of MS2 coat protein” value by setting is: under setting [1], 24 nM; under setting [2], 25.3 nM; under setting [3], 35.5 nM.

As to “UACAUGAGGAUCACCCAUGUUUUGUCGUGUAUGGUAUUUAUCUAGGAUAUCAAUUUGUAUAUUUAUGAGAAGGAGAAUAUUAAU [JMF's solution 67] (Eterna round: R96, puzzle: Exclusion NG 3)”, the “apparent KD of MS2 coat protein” value under setting [4] was 30.7 nM.

In the case of “ACAUGAGGAUCACCCAUGUCCGGCUGGUCCGUCUCGGCUGUCGAGGAUAUAGCUCGGUGUCCGCGCUAGAAGGCGGGAGCCGGC [Aenatbe mod 83] (Eterna round: R96, puzzle: Exclusion NG 3)”, the “apparent KD of MS2 coat protein” value reads like this: (input ligand: FMN 200 uM) 91.5 nM; under setting [4], 64.7 nM; (input ligand: none) 73.4 nM.

Consider “GUCGUGCAGCUUUGCUGUACGAGUACAUGAGGAUCACCCAUGUAGGAUAUGGUACGCUUUGCGUGCCAGAAGGGCGUGCGUUGG [salish99_ExNG3_r04_005] (Eterna round: R96, puzzle: Exclusion NG 3)”, for which the “apparent KD of MS2 coat protein” value (input ligand: FMN 200 uM) amounted to 30.2 nM, the “apparent KD of MS2 coat protein” value under setting [4] is 24 nM and the “apparent KD of MS2 coat protein” value (input ligand: none) amounted to 34.6 nM.

Regarding “AGGUGUAGAGGAUAUACAGUGUAUUACAUGAGGAUCACCCAUGUCCCUCAAUGAGUGUCAGUAGAAGGCUACACCA [Omei Ex5 C3] (Eterna round: R97, puzzle: Exclusion 5)”, the “apparent KD of MS2 coat protein” value by setting is: (input ligand: FMN 200 uM) 329 nM; (input ligand: none) 403 nM.

Turning to “AAGGUGUUAGGAUAUCGUAGUUUGAGGCAGACGGGAUUUUGCGAGAAGGAACAUGAGGAUCACCCAUGUAGGAU [JR_Exclu4_Sub040] (puzzle: Exclusion 4)”, the “apparent KD of MS2 coat protein” value under setting [2] is 25.9 nM.

Regarding “GUUCCGCGAGGAUAUACAGACGGGUCCAAAACGUGUCUCGGACUUGAGGAUCACCCAAGUAGAAGGCGUUUCAG [salish99_ex2_r4_622] (Eterna round: R97, puzzle: Exclusion 2)”, the “apparent KD of MS2 coat protein” value was determined as 20.4 nM (input ligand: FMN 200 uM) and 22.1 nM (input ligand: none).

With “AAGAAACGAGGAUAUACAGUUGAGUGAGGGAGGGUAGUGUUACAUGAGGAUCACCCAUGUAGAAGGCGUGAGAG [JR_Exclu2_Sub090] (puzzle: Exclusion 2)”, the “apparent KD of MS2 coat protein” value by setting is: under setting [1], 24.8 nM; under setting [2], 19.3 nM; under setting [3], 25 nM.

Take “GUGUAGAUAGGAUAUGCGUGAGUCUAGCGAAGCUAGAUUCUACAUGAGGAUCACCCAUGUAGAAGGGUCUACAC [Fiskers Ex 2 - 26] (puzzle: Exclusion 2)”: the “apparent KD of MS2 coat protein” value under setting [2] stood at 15.9 nM.

Regarding “AAAAAGUGAGGAUAUACAUAAGGACCCGGGAGGGAAAUAAAACAUGAGGAUCACCCAUGUAGAAGGCACAAAAA [Exclss2-I] (puzzle: Exclusion 2)”, the “apparent KD of MS2 coat protein” value under setting [1] amounted to 20.2 nM, the “apparent KD of MS2 coat protein” value under setting [2] was 22.2 nM and the “apparent KD of MS2 coat protein” value under setting [3] amounted to 13.5 nM.

Consider “UCGAGGUCAGGAUAUACAUGAGGAUCACCCAUGUGGAAGUAAGGUAGGAGAAGAGUAGGUAGAAGGGACGAGAG [JR_Exclu3_Sub050] (puzzle: Exclusion 3)”, for which the “apparent KD of MS2 coat protein” value under setting [2] worked out at 30.8 nM.

With “UACGAAUUAGGAUAUGCAAUGGGCUCGCUUUCCUUCGAUAAACUUGAGGAUCACCCAAGUAGAAGGAAUUUGUA [Mod 37 - Jieux - Exclusion 2] (Eterna round: R97, puzzle: Exclusion 2)”, the “apparent KD of MS2 coat protein” value by setting is: (input ligand: FMN 200 uM) 14.8 nM; (input ligand: none) 12.9 nM.

Take “GUAAUUCGAGGAUAUGCCCAUCUAAACAUGAGGAUCACCCAUGUGCGCAUGUUUACCAUCGCAGAAGGCGAGCUGC [Eternabot (L1) Solution 31] (Eterna round: R97, puzzle: Exclusion 5)”: the “apparent KD of MS2 coat protein” value was 39.3 nM (input ligand: FMN 200 uM) and 25.5 nM (input ligand: none).

For the sequence “GGUGGACAUGAGGAUCACCCAUGUGAGGAUAUCGGCUGGUACGUGUUGGCUGGCUUCUCGAGAAGGCACAUAGU [Exclusion 1 V65] (puzzle: Exclusion 1)”, under setting [2], the “apparent KD of MS2 coat protein” value is 45.9 nM.

Consider “CUUUCGUGAGGAUAUGAAGCUUCGAUCGUGAGAUCGAGGCUACAGAAGGCACAUGAGGAUCACCCAUGUUCCUC [salish99_ex4_r4_217] (Eterna round: R97, puzzle: Exclusion 4)”, for which the “apparent KD of MS2 coat protein” value is, setting by setting: (input ligand: FMN 200 uM) 666 nM; (input ligand: none) 31.9 nM.

On to “UUUAGUUCAGGAUAUGUAGAUUUUAACAUGAGGAUCACCCAUGUAGAUCCUGAAUUAACUACAGAAGGGAACAUUG [Exclusion 5: 2:b] (puzzle: Exclusion 5)”, for which the “apparent KD of MS2 coat protein” value under setting [1] is 50.1 nM, the “apparent KD of MS2 coat protein” value under setting [2] amounted to 18.2 nM and the “apparent KD of MS2 coat protein” value under setting [3] was 16.5 nM.

For the sequence “CUGUACUGAGGAUAUACAUGAGGAUCACCCAUGUGUACCAGCUAGGAAACUAGCAAAAGUAGAAGGCAGUACAG [Mat - Exclusion 3 - Eli Mod - D62] (Eterna round: R97, puzzle: Exclusion 3)”, the “apparent KD of MS2 coat protein” value is, setting by setting: (input ligand: FMN 200 uM) 27.6 nM; (input ligand: none) 13.3 nM.

As for “CCAUGGGAGCGAGGAUAUAGCCCAUGGGAAGAACUAGAAGGCGCAGACAUGAGGAUCACCCAUGUGUUCAUGAGGAGGUGGACA (Eterna round: R96, puzzle: Exclusion NG 1)”, the “apparent KD of MS2 coat protein” value (input ligand: FMN 200 uM) came to 153 nM, the “apparent KD of MS2 coat protein” value under setting [4] is 82.6 nM and the “apparent KD of MS2 coat protein” value (input ligand: none) worked out at 121 nM.

On to “ACAUGAGGAUCACCCAUGUCUGGCUGGUCUGUUCCGGCUGUCGAGGAUAUAGUCCGGUGUUCGCGCUAGAAGGUGAGGGCUGGA [Aenatbe mod 44] (Eterna round: R96, puzzle: Exclusion NG 3)”, for which the “apparent KD of MS2 coat protein” value runs as follows: (input ligand: FMN 200 uM) 153 nM; under setting [4], 68.6 nM; (input ligand: none) 87.4 nM.

In the case of “CUGAGGUAGCGGUCCUAUGACAUGAGGAUCACCCAUGUACCUUGCUUUGAGCUUUAAGCUCGUCUUAUGAUUCUCGG [Mat - Sensor v3 - turn-off var 1 - JL Mod - D44] (puzzle: Sensor v3, turn-off variant 1)”, the “apparent KD of MS2 coat protein” value is, setting by setting: under setting [1], 504 nM; under setting [2], 625 nM; under setting [3], 861 nM.

On to “GUGCGGUGAGGAUAUACGUAGGUACAGAUCUGUGUGUUCCUACAUGAGGAUCACCCAUGUAGAAGGCAUGGCAC [LRO-Excl2-12] (puzzle: Exclusion 2)”, for which the “apparent KD of MS2 coat protein” value under setting [2] was found to be 38.4 nM.

Take “GCGCCAUCGUGAGAUGGCGUAAUUACAUGAGGAUCACCCAUGUAGGAUAUCGAUUGCUUUGCAGUCGAGAAGGACAUGAUAAUU [JL ENG3 3.80] (Eterna round: R96, puzzle: Exclusion NG 3)”: the “apparent KD of MS2 coat protein” value is, setting by setting: (input ligand: FMN 200 uM) 104 nM; under setting [4], 25 nM; (input ligand: none) 33.7 nM.

For the sequence “GUAAAGUGAGGAUAUGGUAAAUUAAUUAUUAAUUAAUUAAUCCAGAAGGCACAUGAGGAUCACCCAUGUUAAUG [Mat - Exclusion 4 - D89] (puzzle: Exclusion 4)”, the “apparent KD of MS2 coat protein” value under setting [1] came to 50.9 nM, the “apparent KD of MS2 coat protein” value under setting [2] was 28.6 nM and the “apparent KD of MS2 coat protein” value under setting [3] is 34.5 nM.

Consider “ACAUGAGGAUCACCCAUGUCUGGCUGGUCUGCUCCGGUUGUUGAGGAUAUAGUCCGGUGUUCGCGCUAGAAGGUGAGGGCUGGA [Aenatbe mod 40] (Eterna round: R96, puzzle: Exclusion NG 3)”, for which the “apparent KD of MS2 coat protein” value (input ligand: FMN 200 uM) came out at 137 nM, the “apparent KD of MS2 coat protein” value under setting [4] turned out to be 96.4 nM and the “apparent KD of MS2 coat protein” value (input ligand: none) amounted to 131 nM.

Consider “GGUUUUUUUUUCCUUUCUUACAUGAGGAUCACCCAUGUUUCUUGUCGUGCUCGCGUUGCUCGUCUGUCUGUCUGUUG [salish99_TOv1_r3_075(!)] (puzzle: Sensor v3, turn-off variant 1)”, for which the “apparent KD of MS2 coat protein” value came out at 49.7 nM under setting [1], 41 nM under setting [2] and 56.2 nM under setting [3].

Consider “UAUUAGCAAGCGAGAUCCCACAUGAGGAUCACCCAUGUGCUCGUGCAUCCAGAAUUACUGGGUGCUGCUCGUCUUAU [Winner reversed engineered 13] (Eterna round: R97, puzzle: Sensor, turn-off variant 1)”, for which the “apparent KD of MS2 coat protein” value is, setting by setting: (input ligand: FMN 200 uM) 15.2 nM; (input ligand: none) 14.8 nM.

Take “GUCAGACGAGGAUAUAAACGAUAUAACAUGAGGAUCACCCAUGUACGAUCGAAUGAUCGUUUAGAAGGCGUCUGAC [E5/10-A4] (Eterna round: R97, puzzle: Exclusion 5)”: the “apparent KD of MS2 coat protein” value (input ligand: FMN 200 uM) is 17.3 nM and the “apparent KD of MS2 coat protein” value (input ligand: none) amounted to 16.7 nM.

As for “UUCUUGUGAGGAUAUCAGUAGUAAAUAAAUAAAAUUACUACUGAGAAGGCACAUGAGGAUCACCCAUGUUCCUU [salish99_ex3_r3_092] (puzzle: Exclusion 4)”, the “apparent KD of MS2 coat protein” value under setting [2] stood at 15 nM.

“CAUAUACAUGAGGAUCACCCAUGUGAGGAUAUGCUUUAUUAUUAUUAUUAUUAUUAUUGCAGAAGGUACAUUAC [LRO-Excl01-12] (Eterna round: R97, puzzle: Exclusion 1)”: the “apparent KD of MS2 coat protein” value by setting is: (input ligand: FMN 200 uM) 23.9 nM; (input ligand: none) 24.6 nM.

With “CGUCUGUAAGGAUAUGGUUGCAUCAACAUGAGGAUCACCCAUGUUACAUGGGACUAGUGAUUAGAAGGUACGAACG [EX5 #57] (Eterna round: R97, puzzle: Exclusion 5)”, the “apparent KD of MS2 coat protein” value came to 58.3 nM (input ligand: FMN 200 uM) and 54.2 nM (input ligand: none).

In the case of “UUGUUAUAUGUAGGAUAUGCGUAUUGUUAUUAUGCAGAAGGACAUGAGGAUCACCCAUGUAUAUUAUUAUUAUAUAUUAUAUAU [Title] (Eterna round: R96, puzzle: Exclusion NG 1)”, the “apparent KD of MS2 coat protein” value runs as follows: (input ligand: FMN 200 uM) 87.8 nM; under setting [4], 22.2 nM; (input ligand: none) 27.4 nM.
